{"source": "the DeepSol protein solubility set", "data": [{"experiment": "soluble on expression in E. coli; label from the status in PepcDB or PDB records", "values": [{"sequence": "MTTTIEVGMLGLGTVGSGVVERLTRSAAKIEQTQGIRLHLAAVAVNHLNAPRTVQLPIGTRLTDSLTNVVCDRKIQLVIEVMGTVATAKKAIVAALNQGKAVVTANKDLIATAGPELAALAKKQGCDLFYEASVAGGIPILRTLTDSYVTDNVQAVSGIINGTANYMLSAMATGQSYEQALATAQATGYAEADPTNDVAGIDAAYKLMILSRFAFGQELSLPQIAPTGITHLSASVCRLAAENGWQIKLLAQIQRHGSGLYCRVAPVAVPVDQPLSQINGVQNAVAVQSEAIGTSLYTGPGAGSTATANSVLNDVLVAAKHLINGYRMIRNQKRSVSLTVTRFDQLPQTYLGIGPVAPEAVKYYANEADFSVKTIADDCYQITGLSAVKRKKLRANLPLTLIPIAGTTDWKQVTENSITSPINVAI", "soluble on expression in E. coli": "not soluble"}, {"sequence": "MTTTPTLEVYLQPEQLKAALRKDATVGLTSNPKWLPPKYFYDARGSELFEQITALPEYFPTRTERELLRRYSGEIAEVTAPEILVELGSGSSEKTRLLLGAATRHGSLHTYVPQDVSVSALEGAAEQIGVEFPHLTVRGVVSDFTESLHHLPRGGRRTIAFLGGTLGNMVPAERAEFLSGIADVLEPGEHLLLGVGLVIDPAVLVPAYDDAAGVTAQFNRNVLQVLNTQLDADFPVDEFRHVALWDADNEWIEMRLEAERAMSIRVGELDLDVEFTAGEQLRTEISAKFTLDGIRRELAEAGFDVERTWTDPDDRFALVCAARN", "soluble on expression in E. coli": "soluble"}, {"sequence": "MTTVIVANDLVGFGKVALTSSLLPIMSACQTEVLPLPTVLLSSHTGEFDNIYVRYLTVDMQGFCGQWKRLDFRVDGLVGGYFKSEEELGLVSQCLTKKRFLFLLDPIMGDNGRLYQGFDRDYVEAMKDFCQQADVIIPNLTEAALLTGSPYLEEGSYDMTTIENLLRNLSRLGPRKVILTGISFETEKIGLAYFDKETNQVIYRMRKRYQSHFYGSGDLLTAILSAGYFHNLDFLKVCDLALDFLNKVLLFTLSSGRPLKYGLCYEPLYRLFI", "soluble on expression in E. coli": "soluble"}, {"sequence": "MTTVSVQIPAGWPATEERARAVQDELRARVVLDEPGPPPGTGRVTGVDVAYDDERDVVAAAAVVLDAGTLAVVAEATAVGRISFPYVPGLLAFREIPTVLAALEALPCPPGLVVCDGYGLAHPRRFGLASHLGVLTGLPTIGVAKNPFTFTHDDPDTPRGSTSPLLAGAEEVGRAVRTRDGVKPVFVSVGHRVGLGNACAHTLALTPAYRLPETTRRADALCRAALRDAAYRALEHHHHHH", "soluble on expression in E. coli": "not soluble"}, {"sequence": "MTVETQLNPTQPVNQQIYRILRRDIVHCLIPPGTPLSEKEVSTRFNVSRQPVREAFIKLAENGLIQIRPQRGSYVNKISLSQVQNGCFVRQAIECAVVRRAAAMITDNQCYQLAQNLHLQHIAIERKQIDDFFQLDDDFHQKLAQIADCQLAWDTIENIKATIDRVRYMSLDHVSPPEMLLRQHHDIFSALENRDGNAVESAMTQHLQEISESVQLIRQENSGWFSEE", "soluble on expression in E. coli": "not soluble"}, {"sequence": "MTVIETPVKSVICMTSLQLSNFIKLDALSHVVGITSTRHLFNKEMNERLKQGKTAKIGIEGNFDNEVIMSVNPDVIFISPFKRGGYDAMREVGIPLVPHLGYKEMTPLGQAEWIKFIGLFIGEEETANRKFAAIEKHYNELKERVAHVKKRPVLEHHHHHH", "soluble on expression in E. coli": "not soluble"}, {"sequence": "MTVKSQQQIIDSFKQANQDQLFQYYDSLTIDQQQEFIDQLSTIEEPAKLISTVEQAIQFSQTNSTSRNFTQLPNEQTASTLDLSKDILQNWTELGLKAIGNGEVAVLLMAGGQGTRLGSSAPKGCFNIELPSQKSLFQIQAEKILKIEQLAQQYLKSTKKPIINWYIMTSGPTRNATESFFIENNYFGLNSHQVIFFNQGTLPCFNLQGNKILLELKNSICQSPDGNGGLYKALKDNGILDDLNSKGIKHIHMYCVDNCLVKVADPIFIGFAIAKKFDLATKVVRKRDANESVGLIVLDQDNQKPCVIEYSEISQELANKKDPQDSSKLFLRAANIVNHYYSVEFLNKMIPKWISSQKYLPFHIAKKKIPSLNLENGEFYKPTEPNGIKLEQFIFDVFPSVELNKFGCLEVDRLDEFSPLKNADGAKNDTPTTCRNHYLERSSKWVIQNGGVIDNQGLVEVDSKTSYGGEGLEFVNGKHFKNGDII", "soluble on expression in E. coli": "soluble"}, {"sequence": "MTVPDRSEIAGKWYVVALASNTEFFLREKDKMKMAMARISFLGEDELKVSYAVPKPNGCRKWETTFKKTSDDGEVYYSEEAKKKVEVLDTDYKSYAVIYATRVKDGRTLHMMRLYSRSPEVSPAATAIFRKLAGERNYTDEMVAMLPRQEECTVDEV", "soluble on expression in E. coli": "soluble"}, {"sequence": "MTVPEEAQTLIGKHYRAPDHFLVGREKIREFAVAVKDDHPTHYSEPDAAAAGYPALVAPLTFLAIAGRRVQLEIFTKFNIPINIARVFHRDQKFRFHRPILANDKLYFDTYLDSVIESHGTVLAEIRSEVTDAEGKPVVTSVVTMLGLEHHHHHH", "soluble on expression in E. coli": "not soluble"}, {"sequence": "MTVRDKREKMTATREEFADAQQEFAAYAADFAADIETKRDVSSLLDAIDALRAEIEETGDAFDAYNQEFAAEVSHLQTEIGEQREALREMRDIFDAYAETFESDVEAKQDVSDLLAAIEDLRAEMDTTHEAFDAYTNEFVTDVAALRDVSDLLAAIEELQLEFGAVQAEFDDYTDDFDADIERFRNAVAEQRDAVAEYREEFHGVEVQAMLNAIADFQQEIDDFRAEFETTEESFDAFARDFYGAEASDSGDALETEAEAPDAGVPEQPAEESVETENEEAELEVVETETDTEDTDTGSIKEVEEELIIEEEIDTEDTREAENAVEEDEETEADEDAPEGMIQCLVCGEYYQAITEPHLQTHDMTIQEYREEYGEDMPLRPDDKA", "soluble on expression in E. coli": "not soluble"}, {"sequence": "MTVSRFLRNPEQVSVALRGKIAAALDELGYIPNRAPDILSNATSRAIGVLLPSLTNQVFAEVLRGIESVTDAHGYQTMLAHYGYKPEMEQERLESMLSWNIDGLILTERTHTPRTLKMIEVAGIPVVELMDSQSPCLDIAVGFDNFEAARQMTTAIIARGHRHIAYLGARLDERTIIKQKGYEQAMLDAGLVPYSVMVEQSSSYSSGIELIRQARREYPQLDGVFCTNDDLAVGAAFECQRLGLKVPDDMAIAGFHGHDIGQVMEPRLASVLTPRERMGSIGAERLLARIRGESVTPKMLDLGFTLSPGGSI", "soluble on expression in E. coli": "not soluble"}, {"sequence": "MTVTTKLIDYSDEEGNNFEGVLYIPKNVKQSKVPAVLIFPAFRGITHFEKDKGQQIAELGFVAFVADVYGKGVRPTERADAFATMGPLVSNRVEKLKPRLFAAVNTLKTFSEVDTSKIAAIGYCFGGLCVLDLARYNAGLKGVVSYHGTLKPIPDIALDPIVGTTVYVHHGDADFHIAKDQVDGFHEEMRTRQADFVFVSHANAVHAFTEPEADSFNAPGIGYNEKAAKRSWNATLDLFKEIF", "soluble on expression in E. coli": "not soluble"}, {"sequence": "MTWKPNVTVAAVIEQDDKYLLVEEIPRGTAIKLNQPAGHLEPGESIIQACSREVLEETGHSFLPEVLTGIYHWTCASNGTTYLRFTFSGQVVSFDPDRKLDTGIVRAAWFSIDEIRAKQAMHRTPLVMQCIEDYHAGKRYPLDILQYYD", "soluble on expression in E. coli": "soluble"}, {"sequence": "MTYGPESLSNQELLAILLRTGTKKEHVLNLSIKILNGLDSLADFRSLSLEELQEIEGIGQVRSVEIKAMLELSKRINQAEYNFKERILSSERLAKIMMSELGDKRQEHLIAIYLDTQNRVIKKQVIFIGSVRRSVAEPREILHYACKSMATSLIIVHNHPSGSTYPSENDLRFTEKIKRSCDDLGIVFLDHIIVGKKEYYSFREETDLV", "soluble on expression in E. coli": "not soluble"}, {"sequence": "MTYIALIGDIIQSKQLTDRSKVQKTLAAYLDDLNKTFAPYIISKLSLTLGDEFQGLFQVDTPIFHLIDLINHHMDIPIRFGVGVGSILTDINPDISIGADGPAYWHAREAIRYIHQKNDYGNTTLALRTGHHNQDDVLNSLLAAGDAIKANWRASQWEIFDTLLDLGIYEEYFDQQRLGKQLSLSSSALSKRLKSSHVKIYLRTRQSALNCLKQIKEETDD", "soluble on expression in E. coli": "not soluble"}, {"sequence": "MTYPTFALDDITSLHESAQVEFKLARGRDGQGQLPEDIWATYSSFANTLGGEIILGVREDRGHFTIEGIPNPQPVLQEFWEIIDNPSRVSCNILAISDVQLIEIMNKKLIRIRVPLAPEHLKPVFIGTDVYTGSYFRVGDADMHASRKQVMQMLRRAHHCNKLFKARLEHHHHHH", "soluble on expression in E. coli": "not soluble"}, {"sequence": "MTYRVKIHKQVVKALQSLPKAHYRRFLEFRDILEYEPVPREKFDVIKLEGTGDLDLYRARLGDYRVIYSVNWKDKVIKILKLKPRGRAYK", "soluble on expression in E. coli": "soluble"}, {"sequence": "MTYTGSIRCEGDTWDLASSVGATATMVAAARAMATRAANPLINDQFAEPLVRAVGVDVLTRLASGELTASDIDDPERPNASMVRMAEHHAVRTKFFDEFFMDATRAGIRQVVILASGLDSRAYRLAWPAQTVVYEIDQPQVMEFKTRTLAELGATPTADRRVVTADLRADWPTALGAAGFDPTQPTAWSAEGLLRYLPPEAQDRLLDNVTALSVPDSRFATESIRNFKPHHEERMRERMTILANRWRAYGFDLDMNELVYFGDRNEPASYLSDNGWLLTEIKSQDLLTANGFQPFEDEEVPLPDFFYVSARLQRKHRQYPAHRKPAPSWRHTACPVNELSKSAAYTMTRSDAHQASTTAPPPPGLTG", "soluble on expression in E. coli": "soluble"}, {"sequence": "MVAEITAPKSMGKVLGYNFSKVTAGNASVILTSSMSVDANGETNFERALTDMDMRIPSGIRTKKTVFHCSLNPHPDDRLTTEQLQDIAREYMEKMGYGKQPYIVFKHNDIAREHIHIVSLRVDSYGKKLPYKFEARRSKRITDELERKYGLIPSGNRRSRHETHAENVLKTADVKQGDVRRQIAAVVRAVLKRYAFRSLGEMNLLLARYHIVAEEVRKEYKGKRYDGLVYAITDDAGEKRMIPLHAGKIGRGTGYAAVVRHFEKSKALIKEKAPMLRNAIIEVMQSSPDKERFSEEMKKRGIDVHIRQNEQGRIYGITFISDEAGIAANGSRLGKGYSAHVFNDYFLGGENPFLDYRRQEIRELPTVRSAPEMLPEAETGDDCYDEPVRTDESGIVVHGIDYKELAFQRKLRNRRHKQDITGKRRT", "soluble on expression in E. coli": "not soluble"}, {"sequence": "MVAGNSAHEMVSILNQNRTARKLGKLNESPGLGCMALQYVELCEGNCNVNNTLSCEHPEDDFTQVFAPNCGVELPTFGTITGHILGCSSKYAAPEVAFSDILFRDSSALSVLRNRSHTEVGVGMARLHKGTFFWCLLFSDGVKNSSFVLEDNGRGIKQRTGCYSGSAFPCSSNAHMICMRLLNSFLGLLFSSFCLFEKHLKF", "soluble on expression in E. coli": "soluble"}, {"sequence": "MVCFGVGSGGTVTGVGRYLRAQKQNIGVYPVEPFESSVLSGFPRGPHKIHGIGAGLIPGNVDRSLFTEVLRVKSEDAMKMARRLADEEAILGEISSGANVVAAVELACRPENIGKLIVTTVNSFAERYFSTELYSTLLSEVSKLPISTDEQAVDIAKKYLGL", "soluble on expression in E. coli": "not soluble"}, {"sequence": "MVDFKLSPSQLEARRHAQAFANTVLTKASAEYSTQKDQLSRFQATRPFYREAVRHGLIKAQVPIPLGGTMESLVHESIILEELFAVEPATSITIVATALGLMPVILCDSPSLQEKFLKPFISGEGEPLASLMHSEPNGTANWLQKGGPGLQTTARKVGNEWVISGEKLWPSNSGGWDYKGADLACVVCRVSDDPSKPQDPNVDPATQIAVLLVTRETIANNKKDAYQILGEPELAGHITTSGPHTRFTEFHVPHENLLCTPGLKAQGLVETAFAMSAALVGAMAIGTARAAFEEALVFAKSDTRGGSKHIIEHQSVADKLIDCKIRLETSRLLVWKAVTTLEDEALEWKVKLEMAMQTKIYTTDVAVECVIDAMKAVGMKSYAKDMSFPRLLNEVMCYPLFDGGNIGLKRRQMQRVMALEDYEPWAATYGSSKVDKSRL", "soluble on expression in E. coli": "soluble"}]}]}
